Test results from US20050142582, “Aptamers and methods for their in vitro selection and uses thereof” (The Regents of the University of California, published 2005).

Experiments:
[1] = biological target: T1, TTF1 (thyroid transcription factor 1) (Ciona intestinalis, UniProt O96738 O96738:1-477); assay: SPR; kinetic global fit 1:1; steady-state Kd 65.6 nM; HBS-P pH 7.5, 150 mM NaCl; details: tags: N-terminal His6 plus factor Xa site (pNHis vector), E. coli; label: biotin
T1 sequence: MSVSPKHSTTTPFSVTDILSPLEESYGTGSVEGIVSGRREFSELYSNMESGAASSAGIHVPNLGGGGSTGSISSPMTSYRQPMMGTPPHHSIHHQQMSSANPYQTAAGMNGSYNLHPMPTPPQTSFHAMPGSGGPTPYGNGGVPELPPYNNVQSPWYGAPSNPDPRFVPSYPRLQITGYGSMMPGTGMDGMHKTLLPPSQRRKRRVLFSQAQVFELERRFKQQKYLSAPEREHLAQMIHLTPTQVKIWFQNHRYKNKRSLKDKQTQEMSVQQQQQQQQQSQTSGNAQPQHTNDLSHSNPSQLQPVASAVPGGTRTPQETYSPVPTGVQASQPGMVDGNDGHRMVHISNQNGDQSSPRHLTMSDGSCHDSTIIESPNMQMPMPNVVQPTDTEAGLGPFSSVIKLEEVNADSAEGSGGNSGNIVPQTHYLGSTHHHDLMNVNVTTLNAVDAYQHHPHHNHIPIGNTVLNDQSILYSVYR
Description: (§1) The affinity, as described by the KD, was determined by a global fit using the kinetic simultaneous kₐ/kd model, assuming Langmuir (1:1) binding.
(§2) BIAcore surface plasmon resonance. The affinity of the aptamers for their protein targets was measured using surface plasmon resonance (SPR) with a BIAcore X instrument (BIAcore, Piscataway, N.J.). Biotinylated aptamer (QIAGEN Operon, Alameda, Calif.) was diluted to 0.5 ng/μL in HBS-P (10 mM HEPES, pH 7.5, 150 mM NaCl, 0.05% Tween 20), heated to 95° C., and rapidly cooled at 4° C. before use. Approximately 100 RU of biotinylated aptamer (ligand) was immobilized to one flow cell of a streptavidin coated sensor chip. Purified TTF1 protein was diluted into HBS-P to give a series of concentrations of TTF1 protein (3, 12, 31, 62, 125, 250 nM or 2.5, 5, 10, 20, 40, 100 nM) that were injected over the surface for 2 min at a flow rate of 20 μL/min (to minimize mass transfer limitations). Bulk shift and non-specific interactions with the streptavidin were subtracted using the response from a reference flow cell. […] The affinity, as described by the equilibrium dissociation constant (KD), was determined globally by fitting to the kinetic simultaneous kₐ/kd model, assuming Langmuir (1:1) binding. The steady-state affinity was determined from curve-fitting to a plot of the Req values, derived from sensorgrams fitted locally, against the concentrations.

BSA = BSA (UniProt P02769 P02769:25-607); assay: ELONA; PBS-T, 4 C overnight; details: label: biotin
[2] = biological target: T1, TTF1 (thyroid transcription factor 1); assay: SPR; kinetic global fit 1:1; steady-state Kd 5.14 nM; HBS-P pH 7.5, 150 mM NaCl; details: tags: N-terminal His6 plus factor Xa site (pNHis vector), E. coli; label: biotin
Description: as §1, §2

[3] = biological target: XF0749 (virulence regulator) (Xylella fastidiosa, UniProt Q9PFC9 Q9PFC9:1-134); assay: SPR; details: tags: His6, E. coli; label: biotin
[4] = biological target: XF1293 (hypothetical conserved protein) (Xylella fastidiosa, UniProt Q9PDT6 Q9PDT6:1-231); assay: SPR; details: tags: His6, E. coli; label: biotin

Chain of BSA (P02769 25-607, one chain of several): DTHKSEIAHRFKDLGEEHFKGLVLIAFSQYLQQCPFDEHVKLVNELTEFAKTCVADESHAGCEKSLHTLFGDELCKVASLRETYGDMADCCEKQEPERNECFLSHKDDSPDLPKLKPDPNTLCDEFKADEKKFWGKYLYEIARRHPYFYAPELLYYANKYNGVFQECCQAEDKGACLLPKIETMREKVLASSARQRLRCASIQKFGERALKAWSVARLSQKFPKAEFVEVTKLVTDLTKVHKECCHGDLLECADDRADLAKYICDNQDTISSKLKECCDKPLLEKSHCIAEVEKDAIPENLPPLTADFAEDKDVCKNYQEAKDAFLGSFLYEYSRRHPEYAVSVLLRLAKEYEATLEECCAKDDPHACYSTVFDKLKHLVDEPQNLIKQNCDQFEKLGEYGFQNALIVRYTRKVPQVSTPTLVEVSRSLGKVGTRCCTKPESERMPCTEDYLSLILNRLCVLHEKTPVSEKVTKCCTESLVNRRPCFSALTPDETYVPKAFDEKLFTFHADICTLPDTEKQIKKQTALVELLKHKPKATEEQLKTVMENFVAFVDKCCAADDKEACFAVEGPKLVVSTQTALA

B1: TTF1 Aptamer C (ssDNA)
DNA: GGTATTGAGGGTCGCATCTGGCTAGTGGGTAAGGGGCGGGAGGGTGACAGGGCGATCCGATGGCTCTAACTCTCCTCT
Binder B1 has a Kd [1] of 32.5 nM.

B2: TTF1 Aptamer A (ssDNA)
DNA: GGTATTGAGGGTCGCATCTCAAAAGGGGTGATTGCTTGCACAATGACAGGGTAGGACAGATGGCTCTAACTCTCCTCT
B2 was tested, and the binding result (BSA) was “no binding” and the Kd [2] was 3.36 nM.

B3: 6H7 (ssDNA)
DNA: GGTATTGAGGGTCGCATCGCTATGGGTGGTCTGGTTGGGATTGGCCCCGGGAGCTGGCGATGGCTCTAACTCTCCTCT
Work on B3 yielded a Kd [3] of 42 nM and a Kd [4] of 0.4 nM.

B4: 6H1 (ssDNA)
DNA: GGTATTGAGGGTCGCATCGGCAAAAAGGATTGCCCAGGTCTGCTGTCTAGCCGGATTCGATGGCTCTAACTCTCCTCT
Work on B4 yielded a Kd [4] of 0.08 nM.

B5: 6H5 (ssDNA)
DNA: GGTATTGAGGGTCGCATCGGCTTCAGGTTGGTCTGGTTGGGTTTGGCTCCTGTGTACGGATGGCTCTAACTCTCCTCT
In the case of B5, the Kd [4] is reported as 30 nM.
